Measurements reported in the supplement of paper PMC10567573.

B1: PHTF1 (parent)
chain: RVKLISNKGTETDNDPSCVHPIIK
B2: SNX8 (parent)
chain: RMVPALPPKRMLGADREFIEARRR

Variants of: B1
Test: protein stability index of a GFP-peptide fusion (GPS, HEK-293T) (PSI 1-6); higher = more stable
Conditions: c terminus: a fixed tail appended
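Further: lentivirally expressed fusions sorted by FACS into six bins by GFP to DsRed ratio, PSI derived from sequencing read proportions per bin multiplied by bin number.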

Protein stability index: each site, then its substitutions
V2: I 4.18 | N 4.5 | F 3.26 | G 3.52 | K 4.6 | L 4.19 | M 3.97 | Y 3.54 | W 3.61 | D 4.54 | T 4.35 | P 4.68 | R 4.45 | A 4.41 | C 4.02 | Q 4.65 | H 4.2 | E 4.78 | S 4.44
K3: D 4.48 | Y 2.86 | I 2.81 | R 3.92 | L 2.72 | T 4.19 | P 4.55 | G 4.31 | S 4.33 | W 2.56 | C 3.52 | F 3.29 | M 3.67 | V 3.29 | A 4.38 | E 4.64 | N 4.32 | H 3.83 | Q 4.07
R1: V 3.41 | G 4.15 | D 4.74 | K 4.05 | L 3.51 | P 4.44 | M 3.66 | Y 2.79 | F 2.21 | H 4.12 | N 4.63 | E 4.14 | Q 4.45 | A 4.57 | T 4.2 | I 3.16 | C 3.93 | W 2.81 | S 4.56
S6: N 4.26 | F 2.77 | W 2.86 | E 3.85 | H 4.03 | V 3.52 | T 3.95 | M 3.14 | L 2.97 | D 4.49 | P 4.17 | A 4 | K 4.36 | C 3.76 | I 3.23 | R 3.62 | Q 4.26 | G 4.38 | Y 3.34
L4: P 4.82 | C 4.48 | W 4.24 | T 4.84 | A 4.57 | M 4.13 | I 4.19 | K 4.43 | S 4.61 | Y 3.77 | F 3.9 | V 3.86 | G 4.44 | D 4.18 | H 4.27 | N 4.48 | R 4.25 | E 5.13 | Q 5.02
N7: A 4.02 | C 3.64
I5: K 4.01 | D 4.7 | Y 3.75 | F 4.02 | L 4.4 | V 4 | N 4.41 | T 4.25 | H 4.3 | Q 4.8 | W 3.6 | S 4.3 | R 3.86 | G 4.09 | M 4.3 | C 3.97 | A 4.11 | E 4.63 | P 4.8

Variants of: B2
Test: as above
Conditions: c terminus: a fixed tail appended

Protein stability index: each site, then its substitutions
R23: M 2.4 | E 4.16 | T 3.56 | F 1.75 | V 3.4 | A 2.54 | C 2.95 | G 3.79 | L 3.65 | H 2.21 | S 3.56 | K 4.02 | I 2.58 | D 4.53 | W 1.28 | N 3.94 | P 3.66 | Q 3.11 | Y 2.97
R24: E 4.23 | P 3.53 | K 3.74 | T 3.95 | M 2.96 | N 3.66 | Q 3.52 | V 3.31 | Y 2.38 | S 3.46 | W 3.05 | F 3.2 | L 2.92 | A 4 | G 3.94 | C 3.53 | I 3.11 | H 3.83 | D 4
R22: K 4.09 | Y 3.43 | V 3.33 | S 3.75 | P 3.79 | N 3.77 | M 3.16 | Q 4.05 | L 2.92 | W 2.73 | H 3.76 | I 2.74 | T 3.75
